The record followed here is patent publication CN116355095A (SHANGHAI L&L VISION BIOPHARMACEUTICALS CO LTD, dated 2023).

Broadly, the EC50 is the midpoint of the concentration-response curve. A word on the IC50: it is the concentration that gives 50% inhibition. A high value points to weaker potency.

Changes are numbered by the printed parent chain. Values joined by “and” are separate entries in the source; they are usually repeats but may differ in a detail not shown here. Equal values may be shown once.

Test [1] addresses T1, 恒河猴TIGIT-mFc (rhesus monkey; mouse, UniProt A0A5F8AKQ5 22-142; P01863 98-330 = IgG part).
T1 construct: also called RhTIGIT-mFc; RhTIGIT
The test is described as follows: ELISA on coated RhTIGIT-mFc. Background: In an ELISA, binding on a coated surface is turned into a signal by an enzyme label.

Test [2] concerns the target T2, 人TIGIT重组蛋白 (hTIGIT; TIGIT-hFc 或 TIGIT-his) (human, UniProt Q495A1 22-141).
T2 construct: extracellular domain; not shown: C-terminal tag (-his, -hFc or -mFc)
T2 sequence (looked up): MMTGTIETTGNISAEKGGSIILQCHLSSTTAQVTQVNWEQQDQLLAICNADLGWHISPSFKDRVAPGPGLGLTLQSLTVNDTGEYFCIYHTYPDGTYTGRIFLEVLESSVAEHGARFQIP
The test is described as follows: ELISA on coated hTIGIT.

Test [3] deals with T3, 人TIGIT-hFc (human, UniProt Q495A1 22-141; P01857 99-330 = IgG part, limits assumed).
T3 construct: extracellular domain;domain: IgG1 Fc区域; also called hTIGIT
The test is described as follows: blocking ELISA: Bio-CD155 on coated TIGIT-hFc; reference Ref1.

The target in test [4] is T1, 恒河猴TIGIT-mFc. The test can be described thus: ELISA on coated RhTIGIT-mFc; reference Ref1.
Test [5] deals with T3, 人TIGIT-hFc. The test can be described thus: blocking ELISA: Bio-CD155 on coated TIGIT-hFc.
Test [6] deals with T2, 人TIGIT重组蛋白 (hTIGIT; TIGIT-hFc 或 …). The test is described as follows: ELISA on coated hTIGIT; reference Ref2.
Test [7] deals with T4, CHO-K1-T1001细胞表达的人TIGIT (human, UniProt Q495A1 22-244).
T4 construct: whole, on cells; also called hTIGIT+细胞; CHO-K1 TIGIT+细胞系
T4 sequence (looked up): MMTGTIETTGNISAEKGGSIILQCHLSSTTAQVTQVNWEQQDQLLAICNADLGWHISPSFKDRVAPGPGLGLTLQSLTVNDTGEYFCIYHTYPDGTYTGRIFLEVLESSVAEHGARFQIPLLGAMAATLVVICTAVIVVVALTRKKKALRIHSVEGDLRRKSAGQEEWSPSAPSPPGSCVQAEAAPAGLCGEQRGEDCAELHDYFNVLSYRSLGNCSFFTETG
The test can be described thus: cell ELISA on fixed hTIGIT+ CHO-K1 cells.

The target of test [8] is T1, 恒河猴TIGIT-mFc. The test can be described thus: ELISA on coated RhTIGIT-mFc; reference Ref2.
Test [9] addresses T3, 人TIGIT-hFc. The test can be described thus: blocking ELISA: Bio-CD155 on coated TIGIT-hFc; reference Ref2.
Test [10] concerns the target T4, CHO-K1-T1001细胞表达的人TIGIT. The test is described as follows: cell ELISA on fixed hTIGIT+ CHO-K1 cells; reference Ref2.
Another test has as its target T5, 小鼠TIGIT-his (mouse, UniProt P86176 29-148, limits assumed).
T5 construct: Bought reagent; also called mouse TIGIT-his; muTIGIT-his
T5 sequence: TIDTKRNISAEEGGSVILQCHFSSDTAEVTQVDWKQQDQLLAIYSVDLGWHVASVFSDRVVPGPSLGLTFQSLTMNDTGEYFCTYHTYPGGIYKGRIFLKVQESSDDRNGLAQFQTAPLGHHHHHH
The test can be described thus: ELISA on coated antigen (Example 3).

For test [11], the target named is T4, CHO-K1-T1001细胞表达的人TIGIT. The test is described as follows: cell ELISA on fixed hTIGIT+ CHO-K1 cells; reference Ref1.
The next test has as its target T6, 人PD-1(hFc/his tag) (human, UniProt Q15116 25-170).
T6 construct: extracellular domain; not shown: C-terminal tag (hFc or his)
The test is described as follows: ELISA on coated antigen.

In test [12] the target is T2, 人TIGIT重组蛋白 (hTIGIT; TIGIT-hFc 或 …). The test can be described thus: ELISA on coated antigen.
In a further test the target is T7, LT023 (TIGIT/his) (human, UniProt Q495A1 22-141).
T7 construct: extracellular domain; Made in-house
T7 sequence: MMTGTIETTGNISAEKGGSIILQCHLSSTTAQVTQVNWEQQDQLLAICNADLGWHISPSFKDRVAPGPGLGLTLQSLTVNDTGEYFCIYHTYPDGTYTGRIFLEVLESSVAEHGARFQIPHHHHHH
The test is described as follows: double sandwich ELISA: coated TIGIT/his, detection with PD-L1/mFc (Example 6), used on serum samples.

T1 sequence (P01863 other isoform, or with tags, fused parts or gaps): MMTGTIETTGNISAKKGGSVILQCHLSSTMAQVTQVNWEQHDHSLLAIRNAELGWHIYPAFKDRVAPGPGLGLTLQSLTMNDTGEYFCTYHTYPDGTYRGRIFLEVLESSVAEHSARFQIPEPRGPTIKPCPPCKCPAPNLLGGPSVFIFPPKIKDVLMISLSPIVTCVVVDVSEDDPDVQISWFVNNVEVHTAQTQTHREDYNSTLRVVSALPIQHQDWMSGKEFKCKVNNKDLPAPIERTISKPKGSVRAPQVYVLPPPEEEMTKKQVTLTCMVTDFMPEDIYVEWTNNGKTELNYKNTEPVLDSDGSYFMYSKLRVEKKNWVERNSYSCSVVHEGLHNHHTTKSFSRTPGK
T6 sequence (Q15116 25-170): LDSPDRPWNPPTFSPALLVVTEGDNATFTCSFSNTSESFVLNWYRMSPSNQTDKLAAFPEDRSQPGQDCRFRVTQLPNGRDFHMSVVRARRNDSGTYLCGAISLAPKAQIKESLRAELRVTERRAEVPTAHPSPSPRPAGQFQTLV

B1: 嵌合抗体mab22c (antibody, human IgG1, kappa, V domains shown)
VH: EVKLVESGGGLVQPGGSLKLSCVASGFTFSSYTMSWVRQTPEKRLELVAEISSSGGSTYYPDTVKGRFTISRDNAKNTLFLQMNSLKSEDTAMYYCARPGLGAWFAYWGQGTLVTVSA
VL: DVLMTQTPLSLPVSLGDQASISCRSSQSIVHNSGNTYLEWYLQKPGQSPKLLIYKVSNRFSGVPDRFSGSGSGTDFTLKISRVEAEDLGIYYCFQFSHVPRTFGGGTKLEIKR
notes: also called 人鼠嵌合抗体mab22c
With B1, the EC50 was 0.658 nM in the test with 恒河猴TIGIT-mFc [1]; 0.27 nM and 0.585 nM in [2]; 0.101 nM in the test with CHO-K1-T1001细胞表达的人TIGIT [7]. Besides, the “IC50 ratio to Ref1” value with 人TIGIT-hFc [3] was 0.46 fold. The “EC50 ratio to Ref1” value in the test with 恒河猴TIGIT-mFc [4] is approximately 2 fold. The same molecule came in with a half-maximal inhibitory concentration (IC50) in the test with 人TIGIT-hFc [5] of 0.541 nM. For the same molecule, the “EC50 ratio to Ref2” value is 0.68 fold in test [6], approximately 2 fold with 恒河猴TIGIT-mFc [8] and 0.47 fold in the test with CHO-K1-T1001细胞表达的人TIGIT [10]. The “IC50 ratio to Ref2” value in the test with 人TIGIT-hFc [9] worked out at 0.51 fold.

B2: 人源化抗体mab22-h2 (antibody, human IgG1, kappa, V domains shown)
VH: EVQLVESGGGLVQPGGSLRLSCAASGFTFSSYTMSWVRQAPGKGLEWVSEISSSGGSTYYPDTVKGRFTISRDNSKNTLYLQMNSLRAEDTAVYYCARPGLGAWFAYWGQGTLVTVSS
VL: B1 VL with L3V, T7S, S14T, L15P, D17E, Q18P, L88V, I90V, L109V
notes: hIgG1, kappa
For the molecule B2, the binding result (in [2]; with CHO-K1-T1001细胞表达的人TIGIT [7]) was “binds” in each case.

B3: IF091 (鼠源单克隆抗体mab22) (antibody, V domains shown)
VH: B1 VH
VL: DVLMTQTPLSLPVSLGDQASISCRSSQSIVHNSGNTYLEWYLQKPGQSPKLLIYKVSNRFSGVPDRFSGSGSGTDFTLKISRVEAEDLGIYYCFQFSHVPRTFGGGTKLEIK
notes: Mouse antibody purified from ascites
B3: the binding result with 小鼠TIGIT-his is reported as “no binding (tested: 10μg/mL起始，5倍梯度稀释)”.

B4: 人源化抗体mab22-h6 (antibody, human IgG1, kappa)
heavy: not shown
light: DIVMTQSPLSLPVTPGEPASISCRSSQSIVHNSGNTYLEWYLQKPGQSPKLLIYKVSNRFSGVPDRFSGSGSGTDFTLKISRVEAEDVGVYYCFQFSHVPRTFGGGTKVEIKRTVAAPSVFIFPPSDEQLKSGTASVVCLLNNFYPREAKVQWKVDNALQSGNSQESVTEQDSKDSTYSLSSTLTLSKADYEKHKVYACEVTHQGLSSPVTKSFNRGEC
notes: hIgG1, kappa
As to B4, the “IC50 ratio to Ref1” value with 人TIGIT-hFc [3] was determined as 0.44 fold. The “EC50 ratio to Ref1” value with CHO-K1-T1001细胞表达的人TIGIT [11] came out at 0.5 fold. The same molecule registered an IC50 with 人TIGIT-hFc [5] of 1.44 nM. In the test with CHO-K1-T1001细胞表达的人TIGIT [7], this molecule displayed an EC50 of 0.0133 nM.

B5: 双特异抗体LB610 (bispecific antibody, human IgG1, kappa)
heavy: not shown
light: B4 light
For B5, the binding result (with 人PD-1(hFc/his tag); in test [12]) was “binds” in each case.

B6: 双特异抗体LB615 (bispecific antibody)
heavy: not shown
light: B4 light
Consider B6, for which the binding result in [12] was “binds”.

B7: 双特异抗体LB621 (bispecific antibody)
heavy: not shown
light: B4 light
notes: Whole mab22-h6 antibody with an anti-PD-L1 (Atezo) scFv joined to its heavy chain; the printed heavy chain carries the scFv at the C-terminus with the last K changed to A
Consider B7, for which the binding result (in [12]; in the test with LT023 (TIGIT/his)) was “binds” throughout.

B8: 人源化抗体mab22-h1 (antibody, human IgG1, kappa, V domains shown)
VH: B2 VH
VL: DIVMTQSPLSLPVTPGEPASISCRSSQSIVHNSGNTYLEWYLQKPGQSPQLLIYKVSNRFSGVPDRFSGSGSGTDFTLKISRVEAEDVGVYYCFQFSHVPRTFGGGTKVEIKR
notes: hIgG1, kappa
Turning to B8, the binding result (in [2]; in the test with CHO-K1-T1001细胞表达的人TIGIT [7]) was “binds” throughout.
